{
  "source": "patent US9006178",
  "about": "(Novo Nordisk, dated 2015)",
  "key": {"human GLP-1 receptor [1]": {"target": "T1, human GLP-1 receptor (human, UniProt P43220 24-463)", "T1 construct": "whole, on cells; also called hGLP-1", "assay": "SPA displacement of [125I]-GLP-1(7-36)NH2 from human GLP-1 receptor membranes, low albumin (0.005% HSA)", "experimental": "(§1) 25 ul (microliter) of test compounds are added to Optiplate. HSA (\"high albumin\" experiment containing 2% HSA), or buffer (\"low albumin\" experiment containing 0.005% HSA), was added (50 ul). 5-10 ug protein/sample was added (50 ul) corresponding to 0.1-0.2 mg protein/ml (to be preferably optimised for each membrane preparation). SPA-particles (Wheatgerm agglutinin SPA beads, Perkin Elmer, #RPNQ0001) were added in an amount of 0.5 mg/well (50 ul). […] The plates were sealed with PlateSealer and incubated for 120 minutes at 30° C. while shaking. The plates were centrifuged (1500 rpm, 10 min) and counted in Topcounter."}, "human GLP-1 receptor [2]": {"target": "T1, human GLP-1 receptor", "assay": "SPA displacement of [125I]-GLP-1(7-36)NH2 from human GLP-1 receptor membranes; IC50 at 2.0% HSA divided by IC50 at 0.005% HSA", "experimental": "as §1"}},
  "note": "*1 amine or outer side, *2 acyl side, *3 side chain or, on linkers, in order; H or OH if unused. Where no end group is shown, it is not given here. Side-chain parts run from the residue outwards. [ ]: non-standard residue; d: D form. The star is where a group is joined. Dodecanoyl(12-OPh(4-COOH)) = O=C(O)c1ccc(OCCCCCCCCCCCC(=O)*)cc1; Decanoyl(10-(4-HOOC-PhO)) = O=C(O)c1ccc(OCCCCCCCCCC(=O)*)cc1; C18 diacid = O=C(O)CCCCCCCCCCCCCCCCC(=O)*; C16 diacid = O=C(O)CCCCCCCCCCCCCCC(=O)*; γGlu = O=C(O)[C@H](CCC(=O)[*:2])N[*:1]; Desaminohistidyl = O=C(CCc1c[nH]cn1)*; εLys = N[C@@H](CCCCN[*:1])C(=O)[*:2]; AEEA = NCCOCCOCC(=O)O; Aib = CC(C)(N)C(=O)O",
  "data": [
    {"molecule": "N^ε18-[(2S)-2-amino-6-[[2-[2-[2-[[(4S)-4-carboxy-4-(13-carboxytridecanoylamino)butanoyl]amino]ethoxy]ethoxy]acetyl]amino]hexanoyl], N^ε26-[(2S)-2-amino-6-[[2-[2-[2-[[(4S)-4-carboxy-4-(13-carboxytridecanoylamino)butanoyl]amino]ethoxy]ethoxy]acetyl]amino]hexanoyl]-[Lys^18,Glu^22,Gln^34] (SEQ ID NO: 11)-GLP-1-(7-37)-peptide", "values": [
      {"measurement": "IC50", "setting": "human GLP-1 receptor [1]", "result": "< 35", "unit": "nM"}
    ]},
    {"molecule": "N^ε18-[(2S)-2-amino-6-[[(2S)-2-amino-6-[[(4S)-4-carboxy-4-[10-(4-carboxyphenoxyl)decanoylamino]butanoyl]amino]hexanoyl]amino]hexanoyl], N^ε26-[(2S)-2-amino-6-[[(2S)-2-amino-6-[[(4S)-4-carboxy-4-[10-(4-carboxyphenoxyl)decanoylamino]butanoyl]amino]hexanoyl]amino]hexanoyl]-[Aib^8,Lys^18,Glu^22,Gln^34] (SEQ ID NO: 9)-GLP-1-(7-37)-peptide", "values": [
      {"measurement": "IC50", "setting": "human GLP-1 receptor [1]", "result": "< 35", "unit": "nM"}
    ]},
    {"molecule": "N^ε18-[(2S)-2-amino-6-[[(2S)-2-amino-6-[[(4S)-4-carboxy-4-[8-[10-(4-carboxyphenoxyl)decanoylamino]octanoylamino]butanoyl]amino]hexanoyl]amino]hexanoyl], N^ε26-[(2S)-2-amino-6-[[(2S)-2-amino-6-[[(4S)-4-carboxy-4-[8-[10-(4-carboxyphenoxyl)decanoylamino]octanoylamino]butanoyl]amino]hexanoyl]amino]hexanoyl]-[Aib^8,Lys^18,Glu^22,Gln^34] (SEQ ID NO: 9)-GLP-1-(7-37)-peptide", "values": [
      {"measurement": "IC50", "setting": "human GLP-1 receptor [1]", "result": "< 35", "unit": "nM"}
    ]},
    {"molecule": "N^ε18-[(2S)-2-amino-6-[[(4S)-4-carboxy-4-(13-carboxytridecanoylamino)butanoyl]amino]hexanoyl], N^ε26-[(2S)-2-amino-6-[[(4S)-4-carboxy-4-(13-carboxytridecanoylamino)butanoyl]amino]hexanoyl]-[Lys^8,Glu^22,Gln^34] (SEQ ID NO: 11)-GLP-1-(7-37)-peptide", "values": [
      {"measurement": "IC50", "setting": "human GLP-1 receptor [1]", "result": "< 35", "unit": "nM"}
    ]},
    {"molecule": "H[Aib]EGTFTSDVSK([εLys-γGlu-C16 diacid])YLEGQAAK([εLys-γGlu-C16 diacid])EFIAWLVQGRG (Double-acylated GLP-1 analogue; positions are counted with His as no)", "note": "[N^ε18-[(2S)-2-amino-6-[[(4S)-4-carboxy-4-(15-carboxypentadecanoylamino)butanoyl]amino]hexanoyl], …]", "values": [
      {"measurement": "IC50", "setting": "human GLP-1 receptor [1]", "result": "< 35", "unit": "nM"},
      {"measurement": "ratio [(IC50/nM) high HSA]/[(IC50/nM) low HSA]", "setting": "human GLP-1 receptor [2]", "result": "> 10"}
    ]},
    {"molecule": "H[Aib]EGTFTSDVSK([εLys-εLys-γGlu-Dodecanoyl(12-OPh(4-COOH))])YLEGQAAK([εLys-εLys-γGlu-Dodecanoyl(12-OPh(4-COOH))])EFIAWLVQGRG (Double-acylated GLP-1 analogue; positions are counted with His as no)", "values": [
      {"measurement": "IC50", "setting": "human GLP-1 receptor [1]", "result": "< 35", "unit": "nM"},
      {"measurement": "ratio [(IC50/nM) high HSA]/[(IC50/nM) low HSA]", "setting": "human GLP-1 receptor [2]", "result": "> 10"}
    ]},
    {"molecule": "H[Aib]EGTFTSDVSK([εLys-εLys-γGlu-C18 diacid])YLEGQAAK([εLys-εLys-γGlu-C18 diacid])EFIAWLVQGRG (Double-acylated GLP-1 analogue; positions are counted with His as no)", "values": [
      {"measurement": "IC50", "setting": "human GLP-1 receptor [1]", "result": "< 35", "unit": "nM"},
      {"measurement": "ratio [(IC50/nM) high HSA]/[(IC50/nM) low HSA]", "setting": "human GLP-1 receptor [2]", "result": "> 10"}
    ]},
    {"molecule": "H[Aib]EGTFTSDVSK([εLys-AEEA-C16 diacid])YLEGQAAK([εLys-AEEA-C16 diacid])EFIAWLVQGRG (Double-acylated GLP-1 analogue; positions are counted with His as no)", "values": [
      {"measurement": "IC50", "setting": "human GLP-1 receptor [1]", "result": "< 35", "unit": "nM"},
      {"measurement": "ratio [(IC50/nM) high HSA]/[(IC50/nM) low HSA]", "setting": "human GLP-1 receptor [2]", "result": "> 10"}
    ]},
    {"molecule": "H[Aib]EGTFTSDVSK([εLys-εLys-γGlu-Decanoyl(10-(4-HOOC-PhO))])YLEGQAAK([εLys-εLys-γGlu-Decanoyl(10-(4-HOOC-PhO))])EFIAWLVQGRG (Double-acylated GLP-1 analogue; positions are counted with His as no)", "values": [
      {"measurement": "IC50", "setting": "human GLP-1 receptor [1]", "result": "< 35", "unit": "nM"},
      {"measurement": "ratio [(IC50/nM) high HSA]/[(IC50/nM) low HSA]", "setting": "human GLP-1 receptor [2]", "result": "> 10"}
    ]},
    {"molecule": "H[Aib]EGTFTSDVSK([εLys-εLys-γGlu-Decanoyl(10-(4-HOOC-PhO))])QLEEQAAK([εLys-εLys-γGlu-Decanoyl(10-(4-HOOC-PhO))])EFIAWLVQGRG", "values": [
      {"measurement": "IC50", "setting": "human GLP-1 receptor [1]", "result": "< 35", "unit": "nM"},
      {"measurement": "ratio [(IC50/nM) high HSA]/[(IC50/nM) low HSA]", "setting": "human GLP-1 receptor [2]", "result": "> 10"}
    ]},
    {"molecule": "[Desaminohistidyl]AEGTFTSDVSK([AEEA-εLys-AEEA-γGlu-Decanoyl(10-(4-HOOC-PhO))])YLEEQAVREFIAK([AEEA-εLys-AEEA-γGlu-Decanoyl(10-(4-HOOC-PhO))])LVRGRG (Double-acylated GLP-1 analogue; positions are counted with residue 1 of the entry as no)", "values": [
      {"measurement": "IC50", "setting": "human GLP-1 receptor [1]", "result": "< 35", "unit": "nM"},
      {"measurement": "ratio [(IC50/nM) high HSA]/[(IC50/nM) low HSA]", "setting": "human GLP-1 receptor [2]", "result": "> 10"}
    ]},
    {"molecule": "H[Aib]EGTFTSDVSK([εLys-AEEA-γGlu-C16 diacid])YLEGQAAK([εLys-AEEA-γGlu-C16 diacid])EFIAWLVQGRG (Double-acylated GLP-1 analogue; positions are counted with His as no)", "values": [
      {"measurement": "IC50", "setting": "human GLP-1 receptor [1]", "result": "< 35", "unit": "nM"},
      {"measurement": "ratio [(IC50/nM) high HSA]/[(IC50/nM) low HSA]", "setting": "human GLP-1 receptor [2]", "result": "> 10"}
    ]},
    {"molecule": "H[Aib]EGTFTSDVSK([εLys-AEEA-AEEA-γGlu-Dodecanoyl(12-OPh(4-COOH))])YLEGQAAK([εLys-AEEA-AEEA-γGlu-Dodecanoyl(12-OPh(4-COOH))])EFIAWLVQGRG (Double-acylated GLP-1 analogue; positions are counted with His as no)", "values": [
      {"measurement": "IC50", "setting": "human GLP-1 receptor [1]", "result": "< 35", "unit": "nM"},
      {"measurement": "ratio [(IC50/nM) high HSA]/[(IC50/nM) low HSA]", "setting": "human GLP-1 receptor [2]", "result": "> 10"}
    ]},
    {"molecule": "H[Aib]EGTFTSDVSK([εLys-εLys-γGlu-C16 diacid])YLEGQAAK([εLys-εLys-γGlu-C16 diacid])EFIAWLVQGRG (Double-acylated GLP-1 analogue; positions are counted with His as no)", "values": [
      {"measurement": "IC50", "setting": "human GLP-1 receptor [1]", "result": "< 35", "unit": "nM"},
      {"measurement": "ratio [(IC50/nM) high HSA]/[(IC50/nM) low HSA]", "setting": "human GLP-1 receptor [2]", "result": "> 10"}
    ]},
    {"molecule": "[Desaminohistidyl][Aib]EGTFTSDVSK([AEEA-εLys-AEEA-γGlu-Decanoyl(10-(4-HOOC-PhO))])YLEEQAAK([AEEA-εLys-AEEA-γGlu-Decanoyl(10-(4-HOOC-PhO))])EFIAWLVQGRG (Double-acylated GLP-1 analogue; positions are counted with residue 1 of the entry as no)", "values": [
      {"measurement": "IC50", "setting": "human GLP-1 receptor [1]", "result": "< 35", "unit": "nM"},
      {"measurement": "ratio [(IC50/nM) high HSA]/[(IC50/nM) low HSA]", "setting": "human GLP-1 receptor [2]", "result": "> 10"}
    ]}
  ]
}
